In paper PMC6555848, “Structural and functional consequences of the STAT5B^N642H driver mutation” (Nature Communications, 2019):

Experiments:
[1] = molecular target: the molecule itself; test: dynamic light scattering; 50 µM protein in 20 mM HEPES pH 7.4, 150 mM NaCl, 2% glycerol; unphosphorylated protein, self-association
[2] = molecular target: the molecule itself; test: crystal structure; unphosphorylated core fragment A136-Q703; two molecules per asymmetric unit; STAT5B 3.29 Å, STAT5B^N642H 3.21 Å

B1: full-length human STAT5B (M1-S787) (natural protein, UniProt P51692 1-787, looked up)
chain: MAVWIQAQQLQGEALHQMQALYGQHFPIEVRHYLSQWIESQAWDSVDLDNPQENIKATQLLEGLVQELQKKAEHQVGEDGFLLKIKLGHYATQLQNTYDRCPMELVRCIRHILYNEQRLVREANNGSSPAGSLADAMSQKHLQINQTFEELRLVTQDTENELKKLQQTQEYFIIQYQESLRIQAQFGPLAQLSPQERLSRETALQQKQVSLEAWLQREAQTLQQYRVELAEKHQKTLQLLRKQQTIILDDELIQWKRRQQLAGNGGPPEGSLDVLQSWCEKLAEIIWQNRQQIRRAEHLCQQLPIPGPVEEMLAEVNATITDIISALVTSTFIIEKQPPQVLKTQTKFAATVRLLVGGKLNVHMNPPQVKATIISEQQAKSLLKNENTRNDYSGEILNNCCVMEYHQATGTLSAHFRNMSLKRIKRSDRRGAESVTEEKFTILFESQFSVGGNELVFQVKTLSLPVVVIVHGSQDNNATATVLWDNAFAEPGRVPFAVPDKVLWPQLCEALNMKFKAEVQSNRGLTKENLVFLAQKLFNNSSSHLEDYSGLSVSWSQFNRENLPGRNYTFWQWFDGVMEVLKKHLKPHWNDGAILGFVNKQQAHDLLINKPDGTFLLRFSDSEIGGITIAWKFDSQERMFWNLMPFTTRDFSIRSLADRLGDLNYLIYVFPDRPKDEVYSKYYTPVPCESATAKAVDGYVKPQIKQVVPEFVNASADAGGGSATYMDQAPSPAVCPQAHYNMYPQNPDSVLDTDGDFDLEDTMDVARRVEELLGRPMDSQWIPHAQS
notes: human STAT5B, full length M1-S787, gene NCBI NM_012448.3, unphosphorylated; also called wild-type STAT5B; wild-type; source: E. coli BL21 (DE3) RILP, purified (Ni-NTA, Ulp1 cleavage, SEC); not shown: His, N-terminal, cleaved; SUMO, N-terminal, cleaved
- stoichiometry N [1]: 2

B2: human STAT5B core fragment (A136-Q703) (domain or fragment, UniProt P51692 136-703, looked up)
chain: AMSQKHLQINQTFEELRLVTQDTENELKKLQQTQEYFIIQYQESLRIQAQFGPLAQLSPQERLSRETALQQKQVSLEAWLQREAQTLQQYRVELAEKHQKTLQLLRKQQTIILDDELIQWKRRQQLAGNGGPPEGSLDVLQSWCEKLAEIIWQNRQQIRRAEHLCQQLPIPGPVEEMLAEVNATITDIISALVTSTFIIEKQPPQVLKTQTKFAATVRLLVGGKLNVHMNPPQVKATIISEQQAKSLLKNENTRNDYSGEILNNCCVMEYHQATGTLSAHFRNMSLKRIKRSDRRGAESVTEEKFTILFESQFSVGGNELVFQVKTLSLPVVVIVHGSQDNNATATVLWDNAFAEPGRVPFAVPDKVLWPQLCEALNMKFKAEVQSNRGLTKENLVFLAQKLFNNSSSHLEDYSGLSVSWSQFNRENLPGRNYTFWQWFDGVMEVLKKHLKPHWNDGAILGFVNKQQAHDLLINKPDGTFLLRFSDSEIGGITIAWKFDSQERMFWNLMPFTTRDFSIRSLADRLGDLNYLIYVFPDRPKDEVYSKYYTPVPCESATAKAVDGYVKPQ
notes: human STAT5B core fragment A136-Q703 (printed once as S136-Q703), unphosphorylated; Two molecules per asymmetric unit; described as the unphosphorylated dimer; also called unphosphorylated STAT core fragment; source: E. coli BL21 (DE3) RILP, purified (Ni-NTA, Ulp1 cleavage, SEC); not shown: His, N-terminal, cleaved; SUMO, N-terminal, cleaved
- binding result [2]: binds

B3: STAT5B^N642H core fragment (A136-Q703) (domain or fragment, human, UniProt P51692 136-703, looked up)
chain: AMSQKHLQINQTFEELRLVTQDTENELKKLQQTQEYFIIQYQESLRIQAQFGPLAQLSPQERLSRETALQQKQVSLEAWLQREAQTLQQYRVELAEKHQKTLQLLRKQQTIILDDELIQWKRRQQLAGNGGPPEGSLDVLQSWCEKLAEIIWQNRQQIRRAEHLCQQLPIPGPVEEMLAEVNATITDIISALVTSTFIIEKQPPQVLKTQTKFAATVRLLVGGKLNVHMNPPQVKATIISEQQAKSLLKNENTRNDYSGEILNNCCVMEYHQATGTLSAHFRNMSLKRIKRSDRRGAESVTEEKFTILFESQFSVGGNELVFQVKTLSLPVVVIVHGSQDNNATATVLWDNAFAEPGRVPFAVPDKVLWPQLCEALNMKFKAEVQSNRGLTKENLVFLAQKLFNNSSSHLEDYSGLSVSWSQFNRENLPGRNYTFWQWFDGVMEVLKKHLKPHWNDGAILGFVNKQQAHDLLINKPDGTFLLRFSDSEIGGITIAWKFDSQERMFWHLMPFTTRDFSIRSLADRLGDLNYLIYVFPDRPKDEVYSKYYTPVPCESATAKAVDGYVKPQ
notes: human STAT5B core fragment A136-Q703 with the patient-derived mutation N642H; Two molecules per asymmetric unit; described as the unphosphorylated dimer; source: E. coli BL21 (DE3) RILP, purified (Ni-NTA, Ulp1 cleavage, SEC); not shown: His, N-terminal, cleaved; SUMO, N-terminal, cleaved
- binding result [2]: binds
